Test: yeast display, Sf9 membrane polyspecificity reagent, FACS + sequencing; frameworks hold sequencing errors
Method in brief: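 Nanobodies came from a synthetic yeast display library in Saccharomyces cerevisiae BJ5465, induced with galactose for 36–48 hours and stained for 1 hour at 4 °C with 10% biotinylated, detergent-solubilized Sf9 membrane reagent. Cells were enriched on streptavidin microbeads and then FACS-sorted, with low and high (top ~1%) gates set on anti-HA fluorescence for expression and streptavidin fluorescence for reagent binding. Each polyreactivity label reflects the gate a clone came from. Genes were amplified by colony PCR, sequenced by MiSeq 2 × 250 and filtered by CDR length.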

Sequence | polyreactivity (PSR sort gate)
QVQLVESGRGLVQEGGSLRLSCASSGSTFKVYAMGWYRQAPGKERELVAAISQSGGSTYYADSVKGRFTISRDNAKNTVYIQMNSLKPEDTAVYYCAVRTYVYNWSFSSLPYDYWGQGTQVTVSS | high polyreactivity
QVHLVESGGGLVQAGGSLRLSSAASGSTFLYYGMGWYRQAPGTERELVATITWRGGRTYYADSVKGRFTISRDNAKNSVYLQMNSLNPEDTAVYYCAARVVGSYLKPYPYGLYYWGQGTQVTVSS | high polyreactivity
QVQLVDSGGGLVQAGGSLRLSCAASGSTIVYYAKGWYRHAPGKERELVAVISDDGGTYYADSVKGRFTISRDNAKNTVYFQMNSLKPEDTAFYYCAKDYYGGAYYWYNDRSGDYWGQGTQVTVSS | low polyreactivity
QVQLVESGGGLVQAGGSLRLSCATSGITFIGKYAMGWYRQAPGKERELVAAISWSGGRTYYADSVKGRFTISRDNAKNSDYLQMNSLKPEDTAVYYCAVYPRDAERYGYWGQGTQVTVSS | high polyreactivity
QVQLVESGGGLVQAGGSLRLSCAASGSIFSYYAMGWYRQAPGKERELVAAITTNTGNTYYADSVKGRFTISRDNAKNTVYLQMNSLKPEDSAVYYCAKSGVADFYYTYYYWGQGTQVNVSS | low polyreactivity
QVQLVESGGGLVQAGGSLRLSCAASGRTFTWNAMGWYRQAPGKERELVADITNNGGSTYYADSVKGRFTISRDNAKNTVYLQMNSLKPEDTAVYYCAKRRNYWFSFDYWGQGTQVTVSS | low polyreactivity
QVQLEESGGGLVQAGGSHRLSCAASGSIFGPNAMGWSRQAPGKERELVAAISWTGGRTYYADSVKGRFTISRDNAYNTVYLQMNSLKPEDTAVYDCAVKGHPCGQGTQVTVSS | low polyreactivity
QVQLVESGGGLVQAGGSLRLSCAASGRTFYHYTMGWYTQAPGKERELVAAISSGGSTNYADSVKGRFTISRDNAKNTVYLQMNSLKPEDTAVYYCAARYRGWSGGYDYWGQGTQETVSS | high polyreactivity
QVQLVESGGGLVQAGGSLSLICAASGRILSGNAMVWYRQAPGKERELVAAITNAGITKYAVSVKGRFTISRDNAKNTVYLQMNSLKPEHTEVYYCASDRYAYKLYDYWGQGTQVTVSS | low polyreactivity
QVQLVESGGGLVQAGGSLRLSCAASGGIFDDYAMGWYRQAPGKERELVAAISSSGGSTYYADSVKGRFTISRDNAKNTVYLQMNSLKPEDTAVYYCNADRRRRFGYWGQGTQVTVSS | high polyreactivity
QVQLVESGGGLVQAVGSLRLSCAASVSTFRHYAMGWYRQAPGKERELVAAISSTGGSTYYADSVKGRFTISRDNAKNTVYLQMNSLKPEDTAVYYCAARRLYWGQGTQVTVSS | high polyreactivity
QVQLVESGGGLVQAGGSLRLSCAATGSIDSNALGWYRQAPGKERELVADITSGTPTYADSVKGRFTITRDNAKNTVYLQMNSLKPEDTAVYYCAADIPPWGGDYWGQGTQVTVSS | low polyreactivity
QVQLVESGGGLVQAGGSLRLSCSASGFIFPRYTMGWYRQAPGKERELVAGITLRGGSTYYADSVKGRFTISRDNAKNTVYLQMNSLKPDDTAVYYCARGISRGRSFGIGYDYWGQGTQVTVSS | low polyreactivity
QVQLVESGGGLVQAGGSLRLSCAASGSTFGPYAMGWYRQAPGKERELVATINSSGSTNYADSVKGRFTISRDNAKNTVYLQMKSLKPEDTAVYYCATLHYYYWYDYWGQGTQVTVSS | low polyreactivity
QVQLVESGGGLVQAGGSLRLSCAASGRIFYQYAMGWYRPAPGKERELVAAIRWSGGSTYYADSVKGRFTISRDNAKNTVYLQMNSLKQEDTAVYYCNARYPYWGAYYDYDYWGQGTQVTVSS | low polyreactivity
QVQLVESGGGLFQAGGTLRLSCAATGITFRWYAMGWYRQAPGKEMELVAAITYRGGSTHYSDSVKGRFTISRDNAKNTVYLQMNSLKPEDTAVYYCAVRRWPRYRWSDYWGQGTQVTLSS | low polyreactivity
QVHLVESGGGLVQAGGSLRLSCASSGSIFRYNTMGWYRQAPGKERELVAAIRGDGSTNYADSVKGRFTISRDNAKNTVYLQMNSLKPEDTAVYYCAVNLRGYRYAYDYWGQGTKVTVSS | low polyreactivity
QVQLVESGGGLVQAGGSLRLSCAASGSTFKVYAMGWYRQAPGKERELVAVISGGGRTNYADSVKGRFTISRDNAKNTVYLQMNSLKPEDTAVYYCAAQATYHRYYTYYYWGQGTKVTVSS | high polyreactivity
QVQLVESAGGLVQAGGSLRLSCAASGSTFFTYTMGWYRQAPGKERELVAAISSGGSTYYADSVKGRFTISRDNAKNTVYLQMNSLKPEDTAVYYLLRGQGTQVTVSS | low polyreactivity
QVQLVESGGGLVQAGGSLRLSCAASGLIFYYYAMGWYRQAPGKERELVAAITGSGGSTYYADSVKGRFTISRDNAKNTVYLQMNSLKPEDTAVYYCAADGIYTYEYWGQGTQVTVSS | low polyreactivity
QFQLVESGGGLVQAGGSLRLSCAASGRTFKVYAMGCYRQAPGKERELVAAITGGGSTNYADSVKGRFTISRDNAKNTVYLQMNSLKAEDTAVYYCNARYYYRLVKWSRFSSYDFWGQGTQVTVSS | low polyreactivity
QVQLVESGGGLVQAGGSLRLSCAASGFTFNRYAMGWYRQAPGKERELVAAISWSGTSTYYADSVKGRFTISRDNAKNTVYLQMNSLKPEDPAVYYCAAYPALTGGLPKSRGYYWGQGTQVTVSS | high polyreactivity

Sequence | polyreactivity (PSR sort gate)
QGQLVESGGGLVQAGGSLRLTCAASGSNFVQNAMGWYRPAPGKERELVAVSNSGDSTNYADSVKGRFTISRDNAKNTVYLHMNSLKPEDNAVYYCAVDDVSYYYLRAYNYELSWYGSGLDYWGQGTQVTVSS | low polyreactivity
QVQLVESGGGLVQAGGSLRLSCAASGSTFDQNAMGWYRPAPGKERELVAAISGSGTRTYYADSVKGLFTISRDNAKKTVYLQMNSLKPEDTAVYYCRTGSGEYDYWGQGTQVTVSS | high polyreactivity
QVQLVESGGGLVQAGGSLRLSCAASGRTFVRYAMGWYRQAPGKERELVAAISWSGGSTYYADSVKGRFTISRDNAKNTVYLQMNSLKPADTAVYYCAAYYRGRNFDYCGQGTQVTVSS | high polyreactivity
QVQRVESGGGLVQAGGSLRLSCAASGSTFSSYAMGWYRQAPWKERELVAAISRSGGSTHYADSLKGRFTISRDNAKNTVYLQMNSLKPEDSAVYYCAADTGRYLDSNYWGQGTQVTVSS | high polyreactivity
QVQLVESGGGLVQAGGSLRLSCAASGIIFTYYAMGWYRQAPGKERELVASISSSGTSTYYADSVKGRFTISRDNAKNTVYLQMNSLKPEDTAVYYCAADWTGSNGVDYWGQGTQVTVSS | low polyreactivity
QVQLVESGGGLDQAGGSLRLSCAASGRIFVPNAMGWYRQAPGKERELVAAINWGGGSTYYADSVKGRFTISRDNAKNTVYLQMNSLKPEDTAVYYCAADHPYTIGVLPNQQFDYWGQGPQVTVSS | low polyreactivity
QVHLVESGGGLVQAGGSLRLSCAATGRTFRSYAMGWYRQAPGKEREFVAAISRSGASTRYPDSVKGRFTISRDIAKTTVYLQMNSLKPEVTAVYYCAAVWPDVRGYDYWGQGTEVTVSS | high polyreactivity
QVQLVESGGGLVQAGGSLRLSCAASGSILGYYAMGWYRQAPGKERELVAAITASGGSTYYADSVKGRFTISRDNAKNTVYLQMNSLKPEDTAVYYCNADGGPGYPRAYDYWGQGTQVTVSS | low polyreactivity
QVQLVESGGGLVQAGGSLRLSCAASGFTFPGDAMGWYRQAPGKERELVAAIDTSGGNTYADSVKGRFTISRDNAKNTVYLQMNSLKPEDTAVYYCAADYYYVYSSFGHYYWGQGTQVTVSS | low polyreactivity
QVQLVESGGGLVQAGGSLRLSCAASGGIFDENAMGWYRQAPGKARELVAGITQRGASTNYADSVKGRFTISRDNAKNTVYLQMNSLKPEDTAVYYCDADVGTVISYEYWGQGTQVTVSS | low polyreactivity
QVQLQESGGGLVQAGGSLRLSCAASGIIVDADIMGWYRQAPGQERDLVASITDGGRTNYADSVKGRFTISRDNAKNTVYLQMNSLKPEDTAVYYCAAIAYPDIPTYFDYDSEYFYCGQGTQVTVSS | low polyreactivity
QVQLVESGGGLVQAGGSLRLSCAASGSTFEYYAMGWYRQAPGKERELVAAITGSGDNTYYADSVKGRFTISRDYAKNTVYLQMNSLKPEDTAVYYCAATLRVKGQYGRMYYWGQGTQVTVSS | high polyreactivity
QVQLVESGGGLVQAGGSLRLSCAASGRIFGINVMGWYRQAPGKERELVARITGRGGRTYYADSVKGRFTISRDNAKNTVYLQINSLKPEDTAFYYCAADARYEAYDYWGQGTQVTVSS | high polyreactivity
QVQLVESGVVLVQAGGSLRLSCAASGSIFAGYVMGWYRQAPGKERELVASISSGTGTYYADSVKGRFTISRDNAKNTVYLQMNSLKPEDTAVYYCAAECYRTVQFIRSRWSYTYDYWGQGTQVTVSS | low polyreactivity
QVQLVESGGGIVHAGGSLGLSCAASGRIFYSNAMGWYRQAPGKERELVAAISWNGGRTYYADSVKGRFTISRDNAKNTVYLQMKSLKPEDHAVYYCAVRYARQYYYRSGAYASRYLYNYWGQGTQVTVSS | high polyreactivity
QEQLLESGGGLVQAGGSLRLSCAASGYISSHIMSWYRQAPGKEREFVDTITDGGTTNYADSVKGRFTISRDNAKNTVYLQMNSLKPEDTAVYYCAAVATYSYHFGYWGHGTQVTVSS | high polyreactivity
QVQLVESGGGLVQAGGSLRLSCAASGRIFGGNAMGWSRQAPGKERELVAAISWSGGSTYADSVKGRFTISRDNAKNTVYLQMNSLKPEDTAVYYCATRLVKYYYYDYRTYGRRYDYWGQGTQVTVSS | high polyreactivity
QVQLVESGGGLVQAGGSLRLSCAASGRIFQVNDKGFYIQAPGKETELVASITYSGGSTYYADSVKGRFTISRDNAKITVYLQMNSLKPEDTAVYYCNKQNYVWVLVIYYYWGQGTQVTVSS | low polyreactivity
QVQLVESGGGLVQAGGSIRLSCAASGRTFPVNAMGWYRQAPGKERELVAAITTNGGRTYYADSVKGRFTISRDNEKNTVYLQMNSLKPEDTAVYYCATGAYTDKRYGYWGQGTQVTVSS | high polyreactivity
QVHLVESGGGLVQAGGSLRLSSAASGITFWHNTMGWYRQAPGKERELVAAISWTGGRTYYADSVKGRFTISRDNAKNTVYLQMNSLKPEDTAVFSCAADFSWTPCGNYDSWGQGTQVTVSS | low polyreactivity
QVQHVESGGGLVQAGGSLRLSCAASGFISYFYAMGWYRQAPGKERELVPVNTQSGGSTYFADSVKGRFTISRDNAKNTVYLQMNSLKPEDTAVYYCNADTVRDYPFFSVSYYYWGQGTQVTVSS | low polyreactivity
